The values that follow come from PMC11673000 (2024).

To fix the notation:
B1: FAT10 wild type (His-3xFLAG-FAT10) [not stated] / NEDD8 ultimate buster-1 long (NUB1L) [not stated] (parent complex)
chain 1: MAPNASCLCVHVRSEEWDLMTFDANPYDSVKKIKEHVRSKTKVPVQDQVLLLGSKILKPRRSLSSYGIDKEKTIHLTLKVVKPSDEELPLFLVESGDEAKRHLLQVRRSSSVAQVKAMIETKTGIIPETQIVTCNGKRLEDGKMMADYGIRKGNLLFLACYCIGG
chain 2: MAQKKYLQAKLTQFLREDRIQLWKPPYTDENKKVGLALKDLAKQYSDRLECCENEVEKVIEEIRCKAIERGTGNDNYRTTGIATIEVFLPPRLKKDRKNLLETRLHITGRELRSKIAETFGLQENYIKIVINKKQLQLGKTLEEQGVAHNVKAMVLELKQSEEDARKNFQLEEEEQNEAKLKEKQIQRTKRGLEILAKRAAETVVDPEMTPYLDIANQTGRSIRIPPSERKALMLAMGYHEKGRAFLKRKEYGIALPCLLDADKYFCECCRELLDTVDNYAVLQLDIVWCYFRLEQLECLDDAEKKLNLAQKCFKNCYGENHQRLVHIKGNCGKEKVLFLRLYLLQGIRNYHSGNDVEAYEYLNKARQLFKELYIDPSKVDNLLQLGFTAQEARLGLRACDGNVDHAATHITNRREELAQIRKEEKEKKRRRLENIRFLKGMGYSTHAAQQVLHAASGNLDEALKILLSNPQMWWLNDSNPETDNRQESPSQENIDRLVYMGFDALVAEAALRVFRGNVQLAAQTLAHNGGSLPPELPLSPEDSLSPPATSPSDSAGTSSASTDEDMETEAVNEILEDIPEHEEDYLDSTLEDEEIIIAEYLSYVENRKSATKKN

In the first test the parent is B1. Briefly: HA-immunoprecipitation, SDS-PAGE and immunoblot (ECL quantification); HEK293T cells transiently co-transfected with HA-NUB1L and FLAG-FAT10; three independent experiments; parent: 4; read off a plot. In general terms: A western blot detects proteins with antibodies after separation by electrophoresis.
Consider chain 1 MAPNASCLCVHVRSEEWDLMTFDANPYDSVKKIKEHVRSKTKVPVQDQVLLLGSKILKPRRSLDSYGIDKEKTIHLTLKVVKPSDEELPLFLVESGDEAKRHLLQVRRSSSVAQVKAMIETKTGIIPETQIVTCNGKRLEDGKMMADYGIRKGNLLFLACYCIGG, for which the response is ~2.6 IP [FAT10] / Load [FAT10], FAT10 D = 1.
The same measure, in the same setting: the result for chain 1 MAPNASCLCVHVRSEEWDLMTFDANPYDSVKKIKEHVRSKTKVPVQDQVLLLGSKILKPRRSLSSYGIDKEKTIHLTLKVVKPSDEELPLFLVEDGDEAKRHLLQVRRSSSVAQVKAMIETKTGIIPETQIVTCNGKRLEDGKMMADYGIRKGNLLFLACYCIGG reads ~2.6 IP [FAT10] / Load [FAT10], FAT10 D = 1; that for chain 1 MAPNASCLCVHVRSEEWDLMTFDANPYDSVKKIKEHVRSKTKVPVQDQVLLLGSKILKPRRDLSSYGIDKEKTIHLTLKVVKPSDEELPLFLVESGDEAKRHLLQVRRSSSVAQVKAMIETKTGIIPETQIVTCNGKRLEDGKMMADYGIRKGNLLFLACYCIGG, ~3.4 IP [FAT10] / Load [FAT10], FAT10 D = 1.
With chain 1 MAPNASCLCVHVRSEEWDLMTFDANPYDSVKKIKEHVRSKTKVPVQDQVLLLGSKILKPRRSLSSYGIDKEKTIHLTLKVVKPSDEELPLFLVESGDEAKRHLLQVRRDSSVAQVKAMIETKTGIIPETQIVTCNGKRLEDGKMMADYGIRKGNLLFLACYCIGG, the response is ~3 IP [FAT10] / Load [FAT10], FAT10 D = 1.
The same measure, in the same setting: the result for chain 1 MAPNASCLCVHVRSEEWDLMTFDANPYDSVKKIKEHVRSKTKVPVQDQVLLLGSKILKPRRSLSSYGIDKEKTIHLELKVVKPSDEELPLFLVESGDEAKRHLLQVRRSSSVAQVKAMIETKTGIIPETQIVTCNGKRLEDGKMMADYGIRKGNLLFLACYCIGG reads ~0.95 IP [FAT10] / Load [FAT10], FAT10 D = 1.

Another test covers variants of B1. Briefly: HA-immunoprecipitation, SDS-PAGE and immunoblot (ECL quantification); HEK293T cells transiently co-transfected with HA-NUB1L and FLAG-FAT10; three independent experiments; parent: 4.3; read off a plot.
chain 1 MAPNASCLCVHVRSEEWDLMTFDANPYDSVKKIKEHVRSKTKVPVQDQVLLLGSKILKPRRDLDSYGIDKEKTIHLTLKVVKPSDEELPLFLVEDGDEAKRHLLQVRRDSSVAQVKAMIETKTGIIPETQIVTCNGKRLEDGKMMADYGIRKGNLLFLACYCIGG: the response was ~7.7 IP [FAT10] / Load [FAT10], FAT10 D = 1.
The same measure, in the same setting: under chain 1 MAPNASCLCVHVRSEEWDLMTFDANPYDSVKKIKEHVRSKTKVPVQDQVLLLGSKILKPRRSLDSYGIDKEKTIHLELKVVKPSDEELPLFLVESGDEAKRHLLQVRRSSSVAQVKAMIETKTGIIPETQIVTCNGKRLEDGKMMADYGIRKGNLLFLACYCIGG stands ~2.5 IP [FAT10] / Load [FAT10], FAT10 D = 1; under chain 1 MAPNASCLCVHVRSEEWDLMTFDANPYDSVKKIKEHVRSKTKVPVQDQVLLLGSKILKPRRDLDSYGIDKEKTIHLTLKVVKPSDEELPLFLVESGDEAKRHLLQVRRSSSVAQVKAMIETKTGIIPETQIVTCNGKRLEDGKMMADYGIRKGNLLFLACYCIGG, ~4.7 IP [FAT10] / Load [FAT10], FAT10 D = 1.
For chain 1 MAPNASCLCVHVRSEEWDLMTFDANPYDSVKKIKEHVRSKTKVPVQDQVLLLGSKILKPRRDLSSYGIDKEKTIHLELKVVKPSDEELPLFLVESGDEAKRHLLQVRRSSSVAQVKAMIETKTGIIPETQIVTCNGKRLEDGKMMADYGIRKGNLLFLACYCIGG, the response is ~2.8 IP [FAT10] / Load [FAT10], FAT10 D = 1.
Same read-out and setting: under chain 1 MAPNASCLCVHVRSEEWDLMTFDANPYDSVKKIKEHVRSKTKVPVQDQVLLLGSKILKPRRSLSSYGIDKEKTIHLELKVVKPSDEELPLFLVESGDEAKRHLLQVRRSSSVAQVKAMIETKTGIIPETQIVTCNGKRLEDGKMMADYGIRKGNLLFLACYCIGG stands ~1.8 IP [FAT10] / Load [FAT10], FAT10 D = 1; under chain 1 MAPNASCLCVHVRSEEWDLMTFDANPYDSVKKIKEHVRSKTKVPVQDQVLLLGSKILKPRRDLDSYGIDKEKTIHLELKVVKPSDEELPLFLVESGDEAKRHLLQVRRSSSVAQVKAMIETKTGIIPETQIVTCNGKRLEDGKMMADYGIRKGNLLFLACYCIGG, ~1.9 IP [FAT10] / Load [FAT10], FAT10 D = 1.

In the next test the parent is B1. Briefly: HA-immunoprecipitation, SDS-PAGE and immunoblot (ECL quantification); HEK293T cells transiently co-transfected with HA-NUB1L and FLAG-FAT10; three independent experiments; parent: 4.
Take chain 1 MAPNASCLCVHVRSEEWDLMTFDANPYDSVKKIKEHVRSKTKVPVQDQVLLLGSKILKPRRDLDSYGIDKEKTIHLELKVVKPSDEELPLFLVEDGDEAKRHLLQVRRDSSVAQVKAMIETKTGIIPETQIVTCNGKRLEDGKMMADYGIRKGNLLFLACYCIGG: the response was 1 IP [FAT10] / Load [FAT10], FAT10 D = 1.

The variants in a further test derive from B1. Briefly: HA-immunoprecipitation, SDS-PAGE and immunoblot (ECL quantification); HEK293T cells transiently co-transfected with HA-NUB1L and FLAG-FAT10; three independent experiments; parent: 4.3.
Turning to chain 1 MAPNASCLCVHVRSEEWDLMTFDANPYDSVKKIKEHVRSKTKVPVQDQVLLLGSKILKPRRDLDSYGIDKEKTIHLELKVVKPSDEELPLFLVEDGDEAKRHLLQVRRDSSVAQVKAMIETKTGIIPETQIVTCNGKRLEDGKMMADYGIRKGNLLFLACYCIGG, the response is 1 IP [FAT10] / Load [FAT10], FAT10 D = 1.
